In the supplement of paper PMC5998384:

Columns and labels:
[1] = test system: HeLa Kyoto; test: solubility in G1/S (NP-40 vs SDS abundance) (log2 ratio); higher = more soluble; conditions: cell cycle stage: G1/S
[2] = test system: HeLa Kyoto; test: melting temperature (median over replicates), in situ; higher = more thermally stable
[3] = test system: HeLa Kyoto; test: solubility change mitosis vs G1/S (difference of NP-40 vs SDS log2 ratios) (log2 ratio difference); higher = more soluble in mitosis
[4] = test system: HeLa Kyoto; test: thermal stability score vs G1/S (z-score of summed log2 fold changes over temperatures); higher = more thermally stable than in G1/S
[5] = cell cycle stage: early G1 (4.5 h after nocodazole release)
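For melting temperature (median over replicates), in situ in this document: HeLa Kyoto cells synchronized by double thymidine or nocodazole block, proteins quantified by TMT10plex mass spectrometry, three independent biological replicates.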
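For solubility change mitosis vs G1/S (difference of NP-40 vs SDS log2 ratios) in this document: synchronized HeLa Kyoto cells (double thymidine block for G1/S, nocodazole release for mitosis), protein amounts in NP-40 versus SDS lysates quantified by mass spectrometry, three biological replicates.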
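For solubility in G1/S (NP-40 vs SDS abundance) in this document: HeLa Kyoto cells arrested at G1/S by double thymidine block, proteins quantified by TMT10plex mass spectrometry in mild NP-40 versus SDS extracts, three biological replicates.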
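For thermal stability score vs G1/S (z-score of summed log2 fold changes over temperatures) in this document: synchronized HeLa Kyoto cells, proteins quantified by TMT10plex mass spectrometry, three biological replicates, mitosis taken 0.5 h after nocodazole release, G1/S directly after double thymidine block.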

Sequence	solubility in G1/S (log2) [1]	melting temperature ([2]; cell cycle stage: G1/S) [°C]	melting temperature ([2]; cell cycle stage: mitosis) [°C]	solubility change mitosis (log2) [3]	thermal stability score [4, 5]	thermal stability score ([4]; cell cycle stage: mitosis)
MAAQKDQQKDAEAEGLSGTTLLPKLIPSGAGREWLERRRATIRPWSTFVDQQRFSRPRNLGELCQRLVRNVEYYQSNYVFVFLGLILYCVVTSPMLLVALAVFFGACYILYLRTLESKLVLFGREVSPAHQYALAGGISFPFFWLAGAGSAVFWVLGATLVVIGSHAAFHQIEAVDGEELQMEPV [RABAC1]	-0.392	59.6	58.3	-0.0714	-0.0851	-0.547
MAAQQRDCGGAAQLAGPAAEADPLGRFTCPVCLEVYEKPVQVPCGHVFCSACLQECLKPKKPVCGVCRSALAPGVRAVELERQIESTETSCHGCRKNFFLSKIRSHVATCSKYQNYIMEGVKATIKDASLQPRNVPNRYTFPCPYCPEKNFDQEGLVEHCKLFHSTDTKSVVCPICASMPWGDPNYRSANFREHIQRRHRFSYDTFVDYDVDEEDMMNQVLQRSIIDQ [RNF114]	0.162	53.2	53.8	0.0396	-2.47	-2.4
MAAQVTLEDALSNVDLLEELPLPDQQPCIEPPPSSLLYQPNFNTNFEDRNAFVTGIARYIEQATVHSSMNEMLEEGQEYAVMLYTWRSCSRAIPQVKCNEQPNRVEIYEKTVEVLEPEVTKLMNFMYFQRNAIERFCGEVRRLCHAERRKDFVSEAYLITLGKFINMFAVLDELKNMKCSVKNDHSAYKRAAQFLRKMADPQSIQESQNLSMFLANHNKITQSLQQQLEVISGYEELLADIVNLCVDYYENRMYLTPSEKHMLLKVMGFGLYLMDGSVSNIYKLDAKKRINLSKIDKYFKQLQVVPLFGDMQIELARYIKTSAHYEENKSRWTCTSSGSSPQYNICEQMIQIREDHMRFISELARYSNSEVVTGSGRQEAQKTDAEYRKLFDLALQGLQLLSQWSAHVMEVYSWKLVHPTDKYSNKDCPDSAEEYERATRYNYTSEEKFALVEVIAMIKGLQVLMGRMESVFNHAIRHTVYAALQDFSQVTLREPLRQAIKKKKNVIQSVLQAIRKTVCDWETGHEPFNDPALRGEKDPKSGFDIKVPRRAVGPSSTQLYMVRTMLESLIADKSGSKKTLRSSLEGPTILDIEKFHRESFFYTHLINFSETLQQCCDLSQLWFREFFLELTMGRRIQFPIEMSMPWILTDHILETKEASMMEYVLYSLDLYNDSAHYALTRFNKQFLYDEIEAEVNLCFDQFVYKLADQIFAYYKVMAGSLLLDKRLRSECKNQGATIHLPPSNRYETLLKQRHVQLLGRSIDLNRLITQRVSAAMYKSLELAIGRFESEDLTSIVELDGLLEINRMTHKLLSRYLTLDGFDAMFREANHNVSAPYGRITLHVFWELNYDFLPNYCYNGSTNRFVRTVLPFSQEFQRDKQPNAQPQYLHGSKALNLAYSSIYGSYRNFVGPPHFQVICRLLGYQGIAVVMEELLKVVKSLLQGTILQYVKTLMEVMPKICRLPRHEYGSPGILEFFHHQLKDIVEYAELKTVCFQNLREVGNAILFCLLIEQSLSLEEVCDLLHAAPFQNILPRVHVKEGERLDAKMKRLESKYAPLHLVPLIERLGTPQQIAIAREGDLLTKERLCCGLSMFEVILTRIRSFLDDPIWRGPLPSNGVMHVDECVEFHRLWSAMQFVYCIPVGTHEFTVEQCFGDGLHWAGCMIIVLLGQQRRFAVLDFCYHLLKVQKHDGKDEIIKNVPLKKMVERIRKFQILNDEIITILDKYLKSGDGEGTPVEHVRCFQPPIHQSLASS [CYFIP1]	-0.33	51.6	51.1	-0.136	-0.593	-0.58
MAARRGALIVLEGVDRAGKSTQSRKLVEALCAAGHRAELLRFPERSTEIGKLLSSYLQKKSDVEDHSVHLLFSANRWEQVPLIKEKLSQGVTLVVDRYAFSGVAFTGAKENFSLDWCKQPDVGLPKPDLVLFLQLQLADAAKRGAFGHERYENGAFQERALRCFHQLMKDTTLNWKMVDASKSIEAVHEDIRVLSEDAIRTATEKPLGELWK [DTYMK]	-0.0236	56.9	54.4	0.00796	-8.56	-6.57
